Assay results taken from FireProtDB (doi:10.1021/bi982931h).

Settings: Geobacillus stearothermophilus, 25 °C, Urea, CD, Sodium phosphate 10 mM, reversible: yes, whole UniProt chain shown

B1: Large ribosomal subunit protein bL9 wild type, P02417 (protein)
chain: MKVIFLKDVKGKGKKGEIKNVADGYANNFLFKQGLAIEATPANLKALEAQKQKEQRQAAEELANAKKLKEQLEKLTVTIPAKAGEGGRLFGSITSKQIAESLQAQHGLKLDKRKIELADAIRALGYTNVPVKLHPEVTATLKVHVTEQK
- unfolding free energy (pH 2.4, NaCl 750 mM): 2.9 kcal/mol
- unfolding free energy (pH 2.79, NaCl 100 mM): 2.3 kcal/mol
- unfolding free energy (pH 3.15, NaCl 750 mM): 3.1 kcal/mol
- unfolding free energy (pH 3.55, NaCl 100 mM): 3 kcal/mol
- unfolding free energy (pH 4.14, NaCl 750 mM): 4 kcal/mol
- unfolding free energy (pH 4.51, NaCl 100 mM): 3.5 kcal/mol
- unfolding free energy (pH 5.25, NaCl 750 mM): 4.8 kcal/mol
- unfolding free energy (pH 5.99, NaCl 100 mM): 4.4 kcal/mol
- unfolding free energy (pH 6.56, NaCl 750 mM): 4.7 kcal/mol
- unfolding free energy (pH 6.98, NaCl 100 mM): 4.5 kcal/mol
- unfolding free energy (pH 7.26, NaCl 750 mM): 5.2 kcal/mol
